One molecule from patent publication US20220332804A1 (CSL INNOVATION, published 2022) can be followed below.

Changes are numbered by the printed parent chain.

What all share (assay): SPR, KD relative to WT C2;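 note: biacore SPR at 37 °C, anti-C2 mAbs captured on anti-human IgG chips with alanine or serine point mutants of C2 as analyte, KD from 1:1 fit compared with wild-type C2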
The target in experiment [1] is T1, human C2 L279A (human, UniProt P06681 21-752).
T1 sequence: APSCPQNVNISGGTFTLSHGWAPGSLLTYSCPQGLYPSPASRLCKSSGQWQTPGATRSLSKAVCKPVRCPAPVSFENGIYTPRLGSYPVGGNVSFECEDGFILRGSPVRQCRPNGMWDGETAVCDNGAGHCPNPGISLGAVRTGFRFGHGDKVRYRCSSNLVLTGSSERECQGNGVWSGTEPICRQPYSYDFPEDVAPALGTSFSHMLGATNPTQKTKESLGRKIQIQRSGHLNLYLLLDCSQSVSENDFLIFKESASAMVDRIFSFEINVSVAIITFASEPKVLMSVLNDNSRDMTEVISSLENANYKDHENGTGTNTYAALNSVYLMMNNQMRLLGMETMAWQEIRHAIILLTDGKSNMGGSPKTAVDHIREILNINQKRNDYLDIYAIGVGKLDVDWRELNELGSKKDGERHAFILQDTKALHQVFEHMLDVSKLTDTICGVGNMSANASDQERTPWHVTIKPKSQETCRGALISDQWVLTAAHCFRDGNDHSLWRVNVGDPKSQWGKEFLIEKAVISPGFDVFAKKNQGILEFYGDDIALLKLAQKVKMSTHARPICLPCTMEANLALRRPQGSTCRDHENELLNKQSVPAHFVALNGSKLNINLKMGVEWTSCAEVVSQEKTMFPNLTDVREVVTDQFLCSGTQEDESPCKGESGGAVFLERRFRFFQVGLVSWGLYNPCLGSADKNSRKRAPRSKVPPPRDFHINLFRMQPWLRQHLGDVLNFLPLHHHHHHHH

The target in experiment [2] is T2, human C2 I320A (human, UniProt P06681 21-752).
T2 sequence: T1 sequence with A259L, I300A

Experiment [3] deals with T3, human C2 D441A (human, UniProt P06681 21-752).
T3 sequence: T1 sequence with A259L, D421A

Experiment [4] concerns the target T4, human C2 L620A (human, UniProt P06681 21-752).
T4 sequence: T1 sequence with A259L, L600A

B1: RF16-242 (antibody, human IgG4 S228P, lambda, V domains shown)
VH: EVQLLQSGAEVKKPGESLKISCKGSGYSFTSYWIGWVRQMPGKGLEWMGIIYPGDSDTRYSPSFQGQVTISADKSISTAYLQWSSLKASDTAMYYCARRGHYGDYFDYWGQGTLVTVSS
VL: SYELTQPPSVSVSPGQTARITCSGDALPKKYAYWYHQKSGQAPVLVIYEDRRRPSEIPERFSGSSSGTMATLTITGAQVEDEGVYFCYSRDRAGNQRVFGGGTQLTVLG
notes: pH-dependent anti-C2 antibody from a phage display library
For the molecule B1, the Fold diff in experiment [1] came to 7 fold; in experiment [2], 10 fold; in experiment [3], 16 fold; in experiment [4] it was 1 fold.
